# Numbered stars: 1 amine (or outer) side, 2 acyl side, 3 side chain; on linkers, the order of the positions; unused ones are H or OH. Bridge positions count the residues as written; N and C are the ends. Square brackets hold non-standard residues; d marks the D form. Ends that are not written are not given here. * marks the point of attachment. HAY = 2-(4-hydroxyphenyl)acetic acid replacing N-terminal Tyr, O=C(Cc1ccc(O[*:3])cc1)[*:2]; Desaminotyrosyl = O=C(CCc1ccc(O)cc1)*; Nle = CCCC[C@H](N)C(=O)O; Aib = CC(C)(N)C(=O)O
# Biological target: human GLP-1 receptor (human, UniProt P43220 24-463)
# Test: cell-based or functional assay
row,Binder,"In vitro activity (%) compared to native-type peptide, vs human GLP-1 (cAMP EC50, human GLP-1 receptor-expressing CHO cells)"
1,Y[Aib]EGTFTSDYSI[Aib]LDKQHA[Aib]AFVQWLIAGGPSSGAPPPSC [GLP-1/GIP dual agonist of SEQ ID NO: 35],9.6%
2,[Desaminotyrosyl][Aib]EGTFTSDYSI[Aib]LDAQAA[Aib]AFVQWLIAGGPSSGAPPPSK [GLP-1/GIP dual agonist of SEQ ID NO: 41],117%
3,[Desaminotyrosyl][Aib]EGTFISDYSIALE[Nle]QAQQDFVNWLLAGGPSSGAPPPSK [GLP-1/GIP dual agonist of SEQ ID NO: 44],1.4%
4,[Desaminotyrosyl][Aib]EGTFTSDYSI[Aib]LD[Nle]QAA[Aib]AFVQWLIAGGPSSGAPPPSK [GLP-1/GIP dual agonist of SEQ ID NO: 42],69.5%
5,Y[Aib]EGTFTSDYSKYLDEIRAKDFVQWLLDHHPSSGQPPPC (bridge 16-20) [GLP-1/GIP dual agonist of SEQ ID NO: 4],1.9%
6,Y[Aib]EGTFTSDYSI[Aib]LDKQAQQ[Aib]FVQWLIAGGPSSGAPPPSC [GLP-1/GIP dual agonist of SEQ ID NO: 37],45.2%
7,Y[Aib]EGTFTSDYSIALEKQAA[Aib]DFVNWLLAGGPSSGAPPPSC [GLP-1/GIP dual agonist of SEQ ID NO: 39],15.9%
8,Y[Aib]EGTFTSDYSIALEKQAQRDFVNWLLAGGPSSGAPPPSC [GLP-1/GIP dual agonist of SEQ ID NO: 40],97.7%
9,Y[Aib]EGTFTSDYSI[Aib]LDKQAQQAFVQWLIAGGPSSGAPPPSC [GLP-1/GIP dual agonist of SEQ ID NO: 36],79.9%
10,Y[Aib]EGTFTSDYSI[Aib]LEKQAQQDFVNWLLAGGPSSGAPPPSC [GLP-1/GIP dual agonist of SEQ ID NO: 38],14.3%
11,[Desaminotyrosyl][Aib]EGTFISDYSIALEAQAQQDFVNWLLAGGPSSGAPPPSK [GLP-1/GIP dual agonist of SEQ ID NO: 43],1.2%
12,[Desaminotyrosyl][Aib]EGTFTSDYSI[Aib]LDKIAQRAFVQWLIAGGPSSGAPPPSK [GLP-1/GIP dual agonist of SEQ ID NO: 31],93.3%
13,Y[Aib]EGTFTSDYSI[Aib]LDKQAARAFVQWLIAGGPSSGAPPPSC [GLP-1/GIP dual agonist of SEQ ID NO: 34],34.2%
14,[HAY][Aib]EGTFTSDYSI[Aib]LDKIAQRAFVQWLIAGGPSSGAPPPSK [GLP-1/GIP dual agonist of SEQ ID NO: 32],88.3%

# Biological target: T1, human GIP receptor (human, UniProt P48546 22-466)
# T1 sequence (looked up): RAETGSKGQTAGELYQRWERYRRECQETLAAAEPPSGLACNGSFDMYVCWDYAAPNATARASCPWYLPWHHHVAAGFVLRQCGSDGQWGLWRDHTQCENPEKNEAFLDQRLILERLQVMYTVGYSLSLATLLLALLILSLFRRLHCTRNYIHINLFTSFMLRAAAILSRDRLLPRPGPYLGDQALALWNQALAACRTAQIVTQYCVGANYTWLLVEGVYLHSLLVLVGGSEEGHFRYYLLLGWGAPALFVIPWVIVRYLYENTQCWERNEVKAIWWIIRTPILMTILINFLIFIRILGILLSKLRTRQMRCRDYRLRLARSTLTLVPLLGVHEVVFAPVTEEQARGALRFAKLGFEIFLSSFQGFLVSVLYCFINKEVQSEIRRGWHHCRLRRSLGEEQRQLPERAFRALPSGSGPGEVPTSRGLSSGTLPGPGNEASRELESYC
# Test: cell-based or functional assay
row,Binder,"In vitro activity (%) compared to native-type peptide, vs human GIP (cAMP EC50, human GIP receptor-expressing CHO cells)"
1,Y[Aib]EGTFTSDYSI[Aib]LDKQHA[Aib]AFVQWLIAGGPSSGAPPPSC [GLP-1/GIP dual agonist of SEQ ID NO: 35],64.2%
2,[Desaminotyrosyl][Aib]EGTFTSDYSI[Aib]LDAQAA[Aib]AFVQWLIAGGPSSGAPPPSK [GLP-1/GIP dual agonist of SEQ ID NO: 41],58.7%
3,[Desaminotyrosyl][Aib]EGTFISDYSIALE[Nle]QAQQDFVNWLLAGGPSSGAPPPSK [GLP-1/GIP dual agonist of SEQ ID NO: 44],74.2%
4,[Desaminotyrosyl][Aib]EGTFTSDYSI[Aib]LD[Nle]QAA[Aib]AFVQWLIAGGPSSGAPPPSK [GLP-1/GIP dual agonist of SEQ ID NO: 42],35.9%
5,Y[Aib]EGTFTSDYSKYLDEIRAKDFVQWLLDHHPSSGQPPPC (bridge 16-20) [GLP-1/GIP dual agonist of SEQ ID NO: 4],18.5%
6,Y[Aib]EGTFTSDYSI[Aib]LDKQAQQ[Aib]FVQWLIAGGPSSGAPPPSC [GLP-1/GIP dual agonist of SEQ ID NO: 37],174%
7,Y[Aib]EGTFTSDYSIALEKQAA[Aib]DFVNWLLAGGPSSGAPPPSC [GLP-1/GIP dual agonist of SEQ ID NO: 39],144%
8,Y[Aib]EGTFTSDYSIALEKQAQRDFVNWLLAGGPSSGAPPPSC [GLP-1/GIP dual agonist of SEQ ID NO: 40],181%
9,Y[Aib]EGTFTSDYSI[Aib]LDKQAQQAFVQWLIAGGPSSGAPPPSC [GLP-1/GIP dual agonist of SEQ ID NO: 36],217%
10,Y[Aib]EGTFTSDYSI[Aib]LEKQAQQDFVNWLLAGGPSSGAPPPSC [GLP-1/GIP dual agonist of SEQ ID NO: 38],216%
11,[Desaminotyrosyl][Aib]EGTFISDYSIALEAQAQQDFVNWLLAGGPSSGAPPPSK [GLP-1/GIP dual agonist of SEQ ID NO: 43],109%
12,[Desaminotyrosyl][Aib]EGTFTSDYSI[Aib]LDKIAQRAFVQWLIAGGPSSGAPPPSK [GLP-1/GIP dual agonist of SEQ ID NO: 31],38.3%
13,Y[Aib]EGTFTSDYSI[Aib]LDKQAARAFVQWLIAGGPSSGAPPPSC [GLP-1/GIP dual agonist of SEQ ID NO: 34],63.4%
14,[HAY][Aib]EGTFTSDYSI[Aib]LDKIAQRAFVQWLIAGGPSSGAPPPSK [GLP-1/GIP dual agonist of SEQ ID NO: 32],20.1%
